Experimental data: the supplement of paper PMC9732359
± gives the uncertainty stated by the source.

Experiment: protein stability index of a GFP-peptide fusion (yeast GPS) (PSI 1-4); higher = more stable; sorted into four equal gates, so the index is relative within each strain
In short: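 The protein stability index combines read frequencies across sorting gates, each weighted by its gate number and then summed. To obtain those frequencies, a pooled yeast library of GFP fusions to tiled 17-residue yeast protein peptides, on a plasmid also expressing Cherry, was grown to mid-log phase in leucine-free medium. The cells were sorted into four equal gates by GFP/Cherry ratio before plasmid amplification by PCR and Illumina sequencing.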

Sequence | protein stability index (doa10∆) | protein stability index (pdr5∆) | protein stability index (san1∆) | protein stability index (ubr1∆)
EILVEESGLRPVSLLNS [PCI8] | 2.63 ± 0.1 | 3.21 ± 0.1 | 3.16 ± 0.063 | 2.54 ± 0.087
RVKDPQWLIMLGICTHL [RIP1] | 2.62 ± 0.064 | 2.48 ± 0.055 | 2.36 ± 0.075 | 2.91 ± 0.045
EPENNTVIEGVKEESQP [SWI3] | 3.21 ± 0.095 | 3.13 ± 0.092 | 3.08 ± 0.059 | 2.99 ± 0.081
RIKITANNNMNDELVEL [GRR1] | 2.35 ± 0.051 | 2.41 ± 0.053 | 2.33 ± 0.062 | 2.71 ± 0.041
YINDVHLLYPPHIIAVA [SSN8] | 1.74 ± 0.057 | 1.46 ± 0.041 | 2.15 ± 0.072 | 1.67 ± 0.065
SQSSAAAGASVDDKRRN [RPN6] | 3.38 ± 0.2 | 3.41 ± 0.088 | 3.02 ± 0.087 | 3.25 ± 0.087
LTKKKNEEINKKSLEED [SEM1] | – | 3.31 ± 0.11 | 2.77 ± 0.18 | –
HLSHPGTNKDMILKLVC [ECM29] | 1.52 ± 0.049 | 1.45 ± 0.035 | 1.32 ± 0.09 | 1.91 ± 0.045
IPKQLLDDEKIFSQTTN [YJL039C/NUP192] | 2.55 ± 0.077 | 2.77 ± 0.051 | 2.69 ± 0.059 | 3.1 ± 0.052
SKSLQESGDTQEEDEEE [RPC82] | 3.5 ± 0.19 | 3.48 ± 0.15 | 3.29 ± 0.08 | 3.48 ± 0.12
RLGSKKLVEIIWNDVVY [YJL039C/NUP192] | 3.4 ± 0.17 | 3.43 ± 0.12 | 3.46 ± 0.082 | 3.35 ± 0.08
WDDHTKKPLSMALNKVL [CDC53] | 1.99 ± 0.069 | 2.29 ± 0.076 | 2.36 ± 0.056 | 1.94 ± 0.048
DIDLETYSFIDNDRFNV [YML103C/NUP188] | 2.47 ± 0.064 | 2.54 ± 0.056 | 2.46 ± 0.081 | 2.21 ± 0.042
HLSYCSNLTIYPIYELL [GRR1] | 2.54 ± 0.071 | 2.87 ± 0.1 | 3.17 ± 0.062 | 3.06 ± 0.074
TTVQVAEEAIVNAMRVL [PRE4] | 2.91 ± 0.12 | 2.72 ± 0.091 | 1.88 ± 0.27 | 2.54 ± 0.09
IGESARIIREMFAYAKE [RPT4] | 2.31 ± 0.065 | 2.29 ± 0.064 | 2.04 ± 0.063 | 1.75 ± 0.038
SLQYIERQQDELENFLD [YJL041W/NSP1] | 3.1 ± 0.1 | 3.04 ± 0.14 | 3.43 ± 0.096 | 3.12 ± 0.054
VTLSQLVSVTSTLQHFQ [MED8] | 1.9 ± 0.029 | 2.02 ± 0.031 | 1.96 ± 0.037 | 1.87 ± 0.02
PHLFVNGDLTVSLCAKN [SSN2] | 1.95 ± 0.079 | 2.12 ± 0.081 | 2.25 ± 0.18 | 1.87 ± 0.074
PTSDEPVPESAGKADTS [SRB4] | 2.86 ± 0.085 | 3.07 ± 0.092 | 2.88 ± 0.065 | 3.07 ± 0.045
PIFSFGKQEENGDEGDD [YOR098C/NUP1] | 3.63 ± 0.14 | 3.65 ± 0.17 | 3.55 ± 0.096 | 3.32 ± 0.14
RTPVPSTLMPGGVDVGP [SNF5] | – | 3 ± 0.15 | 2.73 ± 0.17 | –
SNILLNSLTKYPDLKAF [MED1] | 1.98 ± 0.14 | 2.41 ± 0.085 | 2.24 ± 0.2 | 1.71 ± 0.094
KKGEYARFKSKDERDTW [SMC3] | – | 3.23 ± 0.17 | 2.69 ± 0.098 | 3.32 ± 0.17
DKRFSGSLKLPNCPRPN [RPL1A] | 2.77 ± 0.073 | 3.05 ± 0.052 | 2.94 ± 0.051 | 2.6 ± 0.046
EMINEQKLPQYIIQGSN [RGR1] | – | 2.96 ± 0.27 | – | 3.15 ± 0.2
PGRLDRKIEFPSLRDRR [RPT3] | 3.35 ± 0.044 | 3.31 ± 0.061 | 3.23 ± 0.048 | 3.23 ± 0.039
FLDGIYVSHKGFITEDL [RPL9A] | 2.38 ± 0.081 | 2.62 ± 0.063 | 2.43 ± 0.1 | 3.29 ± 0.07

Sequence | protein stability index (doa10∆) | protein stability index (pdr5∆) | protein stability index (san1∆) | protein stability index (ubr1∆)
ATFLLTDIKDTLTKISM [MCD1] | 3.03 ± 0.13 | 3.14 ± 0.13 | 2.88 ± 0.099 | 3.17 ± 0.08
YELYINKLTILGRDYPI [IRR1] | 1.31 ± 0.032 | 1.57 ± 0.038 | 1.44 ± 0.055 | 2.04 ± 0.032
PNGTKKAYVRLTADYDA [RPL25] | – | – | 3.07 ± 0.16 | 3.34 ± 0.15
RVFRTRFQDGTSVVSIM [SMC2] | 2.07 ± 0.099 | 1.3 ± 0.1 | – | 2.31 ± 0.087
TIEDIAVAITRASKLKI [RPO31] | 1.63 ± 0.081 | 1.76 ± 0.063 | 2.1 ± 0.12 | 1.97 ± 0.06
EQLSEEDAKLKTDLELL [RPN1] | 3.13 ± 0.15 | 3.25 ± 0.069 | 3.25 ± 0.1 | 3 ± 0.13
SVFKGGMQNLIKKKKKK [SRP14] | 2 ± 0.18 | 3.05 ± 0.3 | – | –
IPAGIYWYWWKNGNEYN [QCR8] | 2.35 ± 0.076 | 1.69 ± 0.053 | 1.77 ± 0.13 | 2.04 ± 0.089
VDNTTEQSNSRKRTRSE [YCG1] | 3.27 ± 0.18 | – | 2.83 ± 0.1 | –
YRRALQSSESFDDSDIT [YML103C/NUP188] | 1.89 ± 0.056 | 2.36 ± 0.059 | 2.16 ± 0.058 | 2.46 ± 0.047
RNSKLLNTKSIQIDEET [MCD1] | 3.21 ± 0.23 | 2.63 ± 0.084 | 3.18 ± 0.061 | 3.33 ± 0.12
SKQNGSKFHFSWNESED [PRP28] | 2.73 ± 0.061 | 2.94 ± 0.064 | 2.72 ± 0.072 | 2.79 ± 0.046
DLKDILEKVVPLINVVV [BRR2] | 2.22 ± 0.12 | 1.91 ± 0.077 | 2.37 ± 0.15 | 2.51 ± 0.065
IAHNISAKNRVVILARA [RPL32] | 1.66 ± 0.043 | 1.71 ± 0.058 | 1.76 ± 0.085 | 1.52 ± 0.043
MILNYNPSQGVSNSGAQ [UBP6] | 3.25 ± 0.096 | 3.37 ± 0.086 | 3.14 ± 0.064 | 3.25 ± 0.055
FSHPAHQQRMSRTAADI [YCG1] | 2.01 ± 0.07 | 2.15 ± 0.093 | 2.4 ± 0.074 | 2.13 ± 0.06
GTLKVILNLYSSAHLIR [YML103C/NUP188] | 2.07 ± 0.15 | – | – | –
MATLEELDAQTLPGDDE [RPT5] | 3.31 ± 0.12 | 3.28 ± 0.15 | 3.35 ± 0.13 | 3.49 ± 0.13
PGPRLLYENIASSPIIL [RPN10] | 2.1 ± 0.03 | 2.29 ± 0.038 | 2.2 ± 0.057 | 2.12 ± 0.028
LVFCKHITSVPISAVLR [GRR1] | 1.61 ± 0.053 | 1.72 ± 0.05 | 1.92 ± 0.088 | 1.71 ± 0.042
ISNKDVIFKIRDRTSGQ [SRB4] | 3.42 ± 0.11 | 3.02 ± 0.13 | 3.42 ± 0.077 | 3.14 ± 0.11
LAYRNYWTQYLGLFIHK [YJL039C/NUP192] | 1.94 ± 0.057 | 1.56 ± 0.037 | 1.9 ± 0.055 | 2.02 ± 0.039
FKGALTIKILPENTAMF [YMR129W/POM152] | 2.32 ± 0.083 | 2.14 ± 0.052 | 2.33 ± 0.056 | 2.25 ± 0.05
EKAVEEKPAVKSYASLL [RPT3] | 2.89 ± 0.06 | 3.02 ± 0.053 | 2.92 ± 0.052 | 2.96 ± 0.049
LKGRVVEVCLADLQGSE [RPS1A] | 2.65 ± 0.062 | 3.08 ± 0.071 | 2.51 ± 0.076 | 2.49 ± 0.055
TGAASNQSSFNFGNNGA [YOR098C/NUP1] | 2.65 ± 0.11 | 2.79 ± 0.099 | 2.5 ± 0.096 | 2.93 ± 0.074
AVEQRKKEKLDSGEVDA [DPB4] | 3.2 ± 0.23 | 3.21 ± 0.17 | 3.36 ± 0.1 | 3.27 ± 0.1
